# Laboratory results taken from PMC5743070 (The Journal of Biological Chemistry, 2017).
# Columns and labels:
# [1] = target: T1, TTD (UHRF1_121–286) (Homo sapiens, UniProt Q96T88); experiment: (1H-15N) HSQC NMR titration of TTD; format: binding; settings: (1H-15N) HSQC spectra of TTD
# T1 construct: UHRF1_121–286 corresponding to the TTD; made in house
# T1 sequence (Q96T88 121-286): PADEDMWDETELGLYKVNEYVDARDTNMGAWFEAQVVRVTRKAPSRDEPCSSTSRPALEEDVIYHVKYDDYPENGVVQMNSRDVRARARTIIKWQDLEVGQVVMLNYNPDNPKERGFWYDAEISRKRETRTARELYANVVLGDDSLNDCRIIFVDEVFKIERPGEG
# Excerpt: We designed a fragment library containing 2,040 compounds that was initially screened against isolated TTD (UHRF1_121–286) using a fluorescence polarization (FP) assay that tracked the displacement of a N-terminally tagged H3K9me3 peptide (H3K9me3(1–25)). From this screen, eight putative TTD-binding hits were identified. […] Because of limited commercial availability of the tricyclic amine, we focused only on BPC. The binding of this compound occurs close to (or within) the Arg^296-binding pocket; we observe significant perturbation of Trp^238 and Phe^278 resonances that form part of the pocket, and in Gly^236, which is directly adjacent to it (Fig. 4A and supplemental Fig. S5). We also see chemical shift changes in non-surface exposed residues that are close to or are in contact with the groove.
# (§1) NMR samples were buffered in 20 mM sodium phosphate (pH 7.5), 150 mM NaCl, 5 mM DTT, 5 mM β-mercaptoethanol, 2 mM TCEP, and 10 μM ZnSO4. The protein concentration was between 200 and 300 μM for all samples. The data were collected at 25 °C on Bruker spectrometers equipped with cryoprobes and operating at 500, 600, or 800 MHz. The assignment of backbone TTD–PHD resonances was accomplished using the ABACUS method ([29]) for which standard backbone and ^15N-edited NOESY spectra were collected using ^15N/^13C/^2H- or ^15N/^13C-labeled protein. All 3D experiments were acquired using non-uniform sampling and processed using the software MDDGUI ([30]) or qMDD ([31]). ^15N-Labeled TTD–PHD was used to acquire ^15N T1 and T2 relaxation and ^1H-^15N heteronuclear NOE measurements ([32]) collected using standard Bruker pulse schemes in an interleaved manner. For T1 measurements, the variable delay was set to 0.1, 0.4, 0.8, 1.5, 2.0, 2.5, 3.5, and 5 s. For T2 measurements, the variable delay was set to 16, 32, 48, 64, 80, 96, 128, and 144 ms. The D1 was 3 s for all experiments. Reported values were the average from two measurements. All spectra were processed using NMRPipe ([33]) and analyzed with SPARKY ([34]).
# Figure S5 (related to Fig. 4)
# Binding of BPC in the groove of TTD. […]
# labeled (at the N-terminus) H3K9me3(1-25) peptide, (B) ITC, and (C) DSF. (D) KD estimates of BPC bind-ing based on I211 and Y239 amide peak movement (where Δ(ppm) = ((ΔδHN)2 + (ΔδN/6.5)2 )1⁄2) in (1H-15N) HSQC spectra when the TTD is titrated with BPC. […]
# as a function of TTD sequence resulting from BPC (blue) or PBR peptide (red) binding. (F) HSQC overlays […]
# ment:protein), and PBR peptide ratios (bottom spectrum - from 1:1 to 5:1 peptide:protein). The protein con-centration was ~250 µM for all NMR experiments, and the DMSO concentration was 5% for NMR titrations […]
# (§2) (1 picture or pasted object on this page, not shown here)
# [2] = target: T2, TTD–PHD (UHRF1_126–366) (Homo sapiens, UniProt Q96T88); experiment: ITC of H3 peptide binding to TTD–PHD
# T2 construct: His tag (TEV-cleavable) (N); made in house
# T2 sequence (Q96T88 126-366): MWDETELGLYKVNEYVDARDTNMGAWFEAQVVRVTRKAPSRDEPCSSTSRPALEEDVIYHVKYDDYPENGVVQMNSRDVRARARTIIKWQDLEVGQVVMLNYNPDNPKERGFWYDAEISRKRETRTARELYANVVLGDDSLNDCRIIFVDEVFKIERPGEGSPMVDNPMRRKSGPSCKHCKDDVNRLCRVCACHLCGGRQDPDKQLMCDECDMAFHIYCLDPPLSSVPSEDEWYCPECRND
# Protocol: A preliminary peptide injection of 0.06 μl was followed by subsequent 2-μl injections into the sample cell containing 167 μl of 50 μM TTD–PHD. Where indicated, 1.5 mM BPC or 1.5 mM PBR peptide was included in the injection syringe and sample cell. The reported KD and n values are based on the average from two measurements. For ITC measurements of TTD (UHRF1_121–286) interaction with BPC, the protein was buffered in 20 mM Tris (pH 7.4), 50 mM NaCl, and 5% DMSO. BPC was brought to a concentration of 2.5 mM and injected into the sample cell containing 40 μM protein. The data were acquired on a Nano ITC from TA Instruments at 25 °C and fitted with an independent-binding site model using NanoAnalyze software (v3.7.0).
# ITC curves showing TTD-PHD binding to methylated (red) and unmethylated (black) H3 peptide.
# as §2
# [3] = target: T2, TTD–PHD (UHRF1_126–366); experiment: (1H-15N) TROSY NMR titration of TTD–PHD; format: binding
# Protocol: Exchange broadening is clearly observed for Arg^282, Gly^284, Asp^291, Asn^292, Met^294, and Ser^301 amide resonances at 1:3 protein/BPC ratios, with perturbations also seen with Gly^286 and Gly^299 (Fig. 4 and supplemental Fig. S6).
# as §1
# [4] = target: T1, TTD (UHRF1_121–286); experiment: HSQC competition of BPC and linker peptide on TTD; format: binding; settings: BPC 2.4 mM, linker peptide 3.0 mM, 5% DMSO; I211, I212 and E281 resonances in HSQC
# Protocol: as §1, with “([34]). […]” for “([34]).”
# trated by the perturbation of I211, I212 and E281 resonances in HSQC spectra of the TTD in a competition assay. […]
substance,measurement,setting,value
"PBR peptide: 15-residue peptide corresponding to the PBR (UHRF1_643–657) (GKGKWKRKSAGGGPS; UniProt Q96T88 643-657, looked up, fragment) [reference compound]",binding site on TTD by amide peak movement,[1],binding in the groove
same,effect on TTD–PHD binding affinity for the histone peptide,"[2]; 1.5 mM BPC (4% DMSO) or 1.5 mM PBR peptide, H3K9me3(1–15)",reduces the TTD–PHD binding affinity for the histone peptide
same,increase of KD for H3K9me3 (effect of added ligand),"[2]; 1.5 mM BPC or PBR peptide in syringe and cell, vs apo TTD–PHD",~5 fold
same,effect on linker resonances of TTD–PHD,"[3]; (1H-15N) TROSY, ~250 μM protein/750 μM ligand",strikingly similar peak broadening/perturbation pattern
same,effect on TTD–PHD conformation,[3]; Fig. 4,promote open TTD–PHD conformations
"linker peptide: linker peptide (corresponding to UHRF1286-300) (GSPMVDNPMRRKSGP; UniProt Q96T88 286-300, looked up, fragment) [reference compound]",competition for the TTD groove,[4],compete directly for the TTD groove
